Test results taken from the supplement of paper PMC9112550, “Optimization of the antimicrobial peptide Bac7 by deep mutational scanning” (BMC Biology, 2022).

test system: Escherichia coli TOP10; assay: shrunken log2 fold change of peptide-encoding DNA abundance (4.5 h post-induction vs induction); higher = less antimicrobial activity (less host growth inhibition); settings: time post-induction: 4.5 h; library: site-saturation at positions 5, 18, 19, 20
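Note: peptides expressed intracellularly from a pBAD plasmid library in pooled LB shake-flask culture, induced with 0.3% L-arabinose, DNA abundance read by NGS, three biological replicates, DESeq2 with apeglm shrinkage.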

Sequence | shrunken log2 fold change
RRIRTRPPRLPRPRPRPGDGPRP | 0.393
RRIRGRPPRLPRPRPRPVTNPRP | 0.735
RRIRIRPPRLPRPRPRPPFDPRP | -0.0876
RRIRVRPPRLPRPRPRPYKRPRP | -0.0182
RRIRNRPPRLPRPRPRPHSCPRP | -0.00198
RRIRRRPPRLPRPRPRPSIWPRP | 0.032
RRIRSRPPRLPRPRPRPNKSPRP | -0.266
RRIRQRPPRLPRPRPRPVDYPRP | 0.0237
RRIRCRPPRLPRPRPRPYTNPRP | -1.19
RRIRKRPPRLPRPRPRPHHAPRP | -0.066
RRIRMRPPRLPRPRPRPSNTPRP | -0.0896
RRIRPRPPRLPRPRPRPLEEPRP | 0.215
RRIRHRPPRLPRPRPRPRDTPRP | 0.123
RRIRIRPPRLPRPRPRPTACPRP | 0.0015
RRIRMRPPRLPRPRPRPPIPPRP | 0.556
RRIRCRPPRLPRPRPRPDLVPRP | -0.0994
RRIRPRPPRLPRPRPRPSLSPRP | 0.022
RRIRDRPPRLPRPRPRPVQKPRP | -0.0131
RRIRWRPPRLPRPRPRPTDKPRP | -0.0481
RRIRIRPPRLPRPRPRPPCMPRP | -0.169
RRIRMRPPRLPRPRPRPKVHPRP | -0.132
RRIRCRPPRLPRPRPRPPADPRP | 0.95
RRIRHRPPRLPRPRPRPGKHPRP | -0.362
RRIRYRPPRLPRPRPRPIYAPRP | -0.461
RRIRGRPPRLPRPRPRPQAVPRP | 0.295

Sequence | shrunken log2 fold change
RRIRVRPPRLPRPRPRPTNQPRP | 0.0229
RRIRYRPPRLPRPRPRPAHNPRP | -0.409
RRIRWRPPRLPRPRPRPNNSPRP | -0.723
RRIRIRPPRLPRPRPRPQSAPRP | 0.0313
RRIRMRPPRLPRPRPRPCYAPRP | -0.105
RRIRHRPPRLPRPRPRPHPPPRP | 0.261
RRIRPRPPRLPRPRPRPKWLPRP | 0.198
RRIRNRPPRLPRPRPRPNPFPRP | -0.0489
RRIRWRPPRLPRPRPRPCITPRP | -0.0175
RRIRARPPRLPRPRPRPEQPPRP | 0.343
RRIRFRPPRLPRPRPRPYPNPRP | -0.152
RRIRYRPPRLPRPRPRPKQMPRP | 0.0213
RRIRQRPPRLPRPRPRPPCPPRP | 0.085
RRIRNRPPRLPRPRPRPFMCPRP | -0.202
RRIRHRPPRLPRPRPRPVGAPRP | 3.01
RRIRFRPPRLPRPRPRPQESPRP | 0.124
RRIRKRPPRLPRPRPRPTHTPRP | 0.285
RRIRCRPPRLPRPRPRPPKCPRP | 0.203
RRIRNRPPRLPRPRPRPYDMPRP | -0.00776
RRIRYRPPRLPRPRPRPGNFPRP | -0.307
RRIRTRPPRLPRPRPRPRYDPRP | -0.123
RRIRERPPRLPRPRPRPAQQPRP | -0.0516
RRIRFRPPRLPRPRPRPPKNPRP | 0.541
RRIRGRPPRLPRPRPRPARSPRP | 0.686
RRIRIRPPRLPRPRPRPCPGPRP | -0.372

Sequence | shrunken log2 fold change
RRIRCRPPRLPRPRPRPPILPRP | -0.501
RRIRIRPPRLPRPRPRPMADPRP | -0.0382
RRIRKRPPRLPRPRPRPFIQPRP | 0.0388
RRIRARPPRLPRPRPRPNYDPRP | -0.36
RRIRARPPRLPRPRPRPHYRPRP | 0.0684
RRIRQRPPRLPRPRPRPFPEPRP | -0.0157
RRIRTRPPRLPRPRPRPEWTPRP | 0.188
RRIRERPPRLPRPRPRPGDSPRP | -1.02
RRIRQRPPRLPRPRPRPHQVPRP | -0.253
RRIRCRPPRLPRPRPRPLIDPRP | -0.301
RRIRDRPPRLPRPRPRPHVEPRP | -0.109
RRIRYRPPRLPRPRPRPASKPRP | -1.29e-05
RRIRARPPRLPRPRPRPYCAPRP | -0.277
RRIRHRPPRLPRPRPRPPNIPRP | -0.157
RRIRCRPPRLPRPRPRPMMNPRP | -0.278
RRIRARPPRLPRPRPRPRPMPRP | 0.771
RRIRYRPPRLPRPRPRPSIWPRP | -1.31
RRIRLRPPRLPRPRPRPLRQPRP | 0.385
RRIRQRPPRLPRPRPRPRVTPRP | 0.238
RRIRNRPPRLPRPRPRPSNEPRP | -0.717
RRIRKRPPRLPRPRPRPDSQPRP | 0.0697
RRIRERPPRLPRPRPRPIFIPRP | -0.508
RRIRQRPPRLPRPRPRPKPCPRP | -0.273
RRIRNRPPRLPRPRPRPAMAPRP | 0.0129
RRIRARPPRLPRPRPRPKMRPRP | 1.64

Sequence | shrunken log2 fold change
RRIRERPPRLPRPRPRPVKRPRP | 0.025
RRIRKRPPRLPRPRPRPQWWPRP | 0.243
RRIRFRPPRLPRPRPRPENKPRP | -0.422
RRIRMRPPRLPRPRPRPMFRPRP | -0.0348
RRIRWRPPRLPRPRPRPDVRPRP | -0.0136
RRIRQRPPRLPRPRPRPAYCPRP | -0.043
RRIRFRPPRLPRPRPRPALRPRP | 0.276
RRIRRRPPRLPRPRPRPDFFPRP | -0.00974
RRIRFRPPRLPRPRPRPAHLPRP | -0.0824
RRIRLRPPRLPRPRPRPPVYPRP | 0.0309
RRIRVRPPRLPRPRPRPIIHPRP | -0.809
RRIRFRPPRLPRPRPRPVAVPRP | 0.105
RRIRLRPPRLPRPRPRPPIGPRP | 0.142
RRIRIRPPRLPRPRPRPRLPPRP | 0.161
RRIRGRPPRLPRPRPRPECGPRP | 1.71
RRIRRRPPRLPRPRPRPRASPRP | 0.527
RRIRTRPPRLPRPRPRPAQRPRP | 0.356
RRIRHRPPRLPRPRPRPTKAPRP | -0.0108
RRIRYRPPRLPRPRPRPHRYPRP | -0.41
RRIRQRPPRLPRPRPRPGEVPRP | -0.102
RRIRWRPPRLPRPRPRPFCPPRP | -0.318
RRIRFRPPRLPRPRPRPGPFPRP | 0.14
RRIRGRPPRLPRPRPRPLQGPRP | 0.226
RRIRNRPPRLPRPRPRPQQLPRP | -0.0538
RRIRKRPPRLPRPRPRPIDHPRP | -0.0104

Sequence | shrunken log2 fold change
RRIRSRPPRLPRPRPRPSIPPRP | -0.458
RRIRDRPPRLPRPRPRPKDLPRP | -0.0191
RRIRWRPPRLPRPRPRPNLVPRP | -0.0198
RRIRWRPPRLPRPRPRPLYLPRP | -0.5
RRIRRRPPRLPRPRPRPYAIPRP | -0.252
RRIRWRPPRLPRPRPRPKIVPRP | -0.272
RRIRHRPPRLPRPRPRPMCLPRP | -0.0755
RRIRYRPPRLPRPRPRPCYPPRP | -0.37
RRIRWRPPRLPRPRPRPFNRPRP | -0.0167
RRIRTRPPRLPRPRPRPRVNPRP | 0.0441
RRIRTRPPRLPRPRPRPGAHPRP | 0.0457
RRIRQRPPRLPRPRPRPHIYPRP | -0.0139
RRIRQRPPRLPRPRPRPPYFPRP | 0.245
RRIRVRPPRLPRPRPRPCRTPRP | -1.03
RRIRDRPPRLPRPRPRPGYIPRP | -0.304
RRIRERPPRLPRPRPRPIGTPRP | -0.976
RRIRCRPPRLPRPRPRPRMKPRP | 0.0252
RRIRERPPRLPRPRPRPVNMPRP | -0.139
RRIRQRPPRLPRPRPRPKLDPRP | 0.168
RRIRDRPPRLPRPRPRPREWPRP | -0.00146
RRIRCRPPRLPRPRPRPDNAPRP | -0.164
RRIRCRPPRLPRPRPRPVVTPRP | -0.0488
RRIRMRPPRLPRPRPRPRCGPRP | 0.733
RRIRKRPPRLPRPRPRPREWPRP | 1.77
RRIRGRPPRLPRPRPRPKNRPRP | 0.368

Sequence | shrunken log2 fold change
RRIRSRPPRLPRPRPRPLQLPRP | -0.456
RRIRCRPPRLPRPRPRPELEPRP | 0.285
RRIRHRPPRLPRPRPRPEPSPRP | 0.137
RRIRKRPPRLPRPRPRPLTLPRP | 0.0103
RRIRQRPPRLPRPRPRPIAVPRP | -0.038
RRIRRRPPRLPRPRPRPSPFPRP | 0.292
RRIRMRPPRLPRPRPRPWSEPRP | 0.0897
RRIRWRPPRLPRPRPRPPRFPRP | 0.326
RRIRRRPPRLPRPRPRPFGQPRP | -0.336
RRIRPRPPRLPRPRPRPPNLPRP | 0.0664
RRIRKRPPRLPRPRPRPTHLPRP | 0.149
RRIRSRPPRLPRPRPRPAAWPRP | 0.226
RRIRSRPPRLPRPRPRPDRSPRP | -0.0187
RRIRIRPPRLPRPRPRPKHYPRP | -0.44
RRIRKRPPRLPRPRPRPRDQPRP | 0.000671
RRIRIRPPRLPRPRPRPCFAPRP | -0.1
RRIRSRPPRLPRPRPRPMSCPRP | -0.067
RRIRNRPPRLPRPRPRPSREPRP | -0.103
RRIRIRPPRLPRPRPRPQHEPRP | -0.262
RRIRTRPPRLPRPRPRPVRGPRP | 0.784
RRIRSRPPRLPRPRPRPECMPRP | 0.00574
RRIRLRPPRLPRPRPRPVTAPRP | 0.213
RRIRDRPPRLPRPRPRPAYMPRP | -0.342
RRIRCRPPRLPRPRPRPTRFPRP | 0.696
RRIRIRPPRLPRPRPRPIEQPRP | -0.489
